Where a chain is given by its changes, count along the chain named. Read-outs that look alike come from different tables or passages of the source.
How the values were obtained:
biotinylated CRH [1] = target: T1, biotinylated CRH (human and mouse, UniProt P01143 145-185 (rat entry), not fully specified; biotin; which end is not stated for the result (NT-biotin and CT-biotin forms were used)); experiment: ELISA, CRH (CT biotin)
T1 construct: also called biotin-CRH; CRH (NT biotin)
T1 peptide: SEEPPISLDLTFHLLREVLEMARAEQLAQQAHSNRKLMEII
Procedure: (§1) Streptavidin (Thermo, Cat: 21125) was diluted in PBS to a concentration of 2 μg/ml. 100 μl of diluted streptavidin was added per well to ELISA microplates, and the plates were incubated overnight at 4° C. […] Subsequently, plates were washed and incubated with HRP-conjugated goat anti-human IgG (H+L) antibody (Jackson, Cat: 109-035-088) at 37° C. for 1 hour. 100 μL of 3,3′,5,5′-tetramethylbenzidine (TMB) substrate (Biopanda, Cat: TMB-S-003) was added, and the plates were incubated at room temperature for 15 minutes. 100 μL of ELISA stopping solution (Solarbio, Cat #: C1058) was added to terminate the reaction, and the optical density at 450 nm (OD450 nm) was determined by an ELISA plate reader (Molecular Devices, Spectra max 384 plus).

biotinylated CRH [2] = target: T1, biotinylated CRH; experiment: ELISA, CRH (NT biotin)
Procedure: as §1

[3] = target: T2, human UCN2 peptide, biotinylated (human, UniProt Q96RP3 72-109, limits assumed, biotin at N- or C-terminus); experiment: ELISA, hUCN2 (NT biotin) and (CT biotin)
T2 construct: also called hUCN2 (NT Biotin); hUCN2 (CT Biotin)
T2 peptide (looked up): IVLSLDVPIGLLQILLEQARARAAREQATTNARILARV
Procedure: (§2) Streptavidin (Thermo, Cat: 21125) was diluted in PBS with a concentration of 2 μg/mL. 100 μL of diluted streptavidin was added per well to ELISA microplates, and the plates were incubated overnight at 4° C. Plates were blocked with ELISA blocking solution (containing 2% w/v BSA, 0.05% (v/v) Tween-20, pH 7.4 PBS buffer) at 37° C. for 1 hour, and then incubated with either 1 μg/mL hUCN1 (NT Biotin), hUCN1 (CT Biotin), hUCN2 (NT Biotin), hUCN2 (CT Biotin), hUCN3 (NT Biotin), or hUCN3 (CT Biotin) for 1 hour at 37° C. […] Plates were subsequently washed and incubated with HRP-conjugated goat anti-human IgG (H+L) antibody (Jackson, Cat: 109-035-088) at 37° C. for 1 hour. 100 μl of TMB Substrate (Biopanda, Cat: TMB-S-003) was added, and the plates were incubated at room temperature for 15 minutes. 100 μL of ELISA stopping solution (Solarbio, Cat #: C1058) was then added to terminate the reaction, and the OD450 nm was determined by an ELISA plate reader (Molecular Devices, Spectra max 384 plus).

[4] = target: T3, human UCN1 peptide, biotinylated (human, UniProt P55089 83-122, biotin at N- or C-terminus); experiment: ELISA, hUCN1 (CT biotin)
T3 construct: also called hUCN1 (NT Biotin); hUCN1 (CT Biotin)
T3 peptide (looked up): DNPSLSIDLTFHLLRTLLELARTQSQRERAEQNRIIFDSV
Procedure: as §1

[5] = target: T3, human UCN1 peptide, biotinylated; experiment: ELISA, hUCN1 (NT biotin)
Procedure: as §1

[6] = target: T4, human UCN3 peptide, biotinylated (human, UniProt Q969E3 120-157, biotin at N- or C-terminus); experiment: ELISA, hUCN3 (NT biotin) and (CT biotin)
T4 construct: also called hUCN3 (NT Biotin); hUCN3 (CT Biotin)
T4 peptide (looked up): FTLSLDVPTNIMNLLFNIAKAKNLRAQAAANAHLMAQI
Procedure: as §2

biotinylated CRH [7] = target: T1, biotinylated CRH; experiment: Octet in-tandem competition on captured CRH; row = 1st mAb; competitor (2nd mAb) PR006669
Procedure: (§3) SA sensors (Fortebio, Cat #18-5019) were hydrated in running buffer for 10 mins.

biotinylated CRH [8] = target: T1, biotinylated CRH; experiment: ELISA, CRH (NT biotin)
Procedure: as §1
These potential PTMs were mutated individually either in HCDR2 alone, in LCDR1 alone, or in various combinations of mutations, as detailed in Table 3. […] Most ΔPTM variants retained functional activities.

[9] = target: T5, corticotropin-releasing hormone (CRH) peptide (human and mouse, UniProt P01143 145-185 (rat entry), not fully specified); experiment: cell-based or functional assay
T5 peptide: T1 peptide

[10] = target: T6, CRH (Central Region, NT Biotin) (N-terminal Biotin-K; C-terminal NH2); experiment: ELISA, CRH central region peptide (NT biotin)
T6 construct: also called Central CRH
T6 peptide: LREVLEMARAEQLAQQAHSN
Procedure: as §1

[11] = target: T7, CRH (Central Region, CT Biotin) (C-terminal K-Biotin); experiment: ELISA, CRH central region peptide (CT biotin)
T7 construct: also called Central CRH
T7 peptide: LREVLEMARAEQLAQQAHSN
Procedure: as §1

[12] = target: T5, corticotropin-releasing hormone (CRH) …; experiment: cell-based or functional assay
[13] = target: T8, N-Terminal CRH peptide (N-terminal region plus central region, CT biotin) (human and mouse, C-terminal K-Biotin); experiment: ELISA, N-Ter-CRH (CT-biotin) on streptavidin
T8 construct: also called N-Ter-CRH
T8 peptide: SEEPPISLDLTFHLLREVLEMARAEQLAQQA
Procedure: as §1

[14] = target: T9, CRH (C-Terminal Region, NT Biotin) (N-terminal Biotin-K; C-terminal NH2); experiment: ELISA, CRH C-terminal region peptide (NT biotin)
T9 construct: central region plus C-terminal region of CRH; also called C-Terminal CRH; C-Ter-CRH
T9 peptide: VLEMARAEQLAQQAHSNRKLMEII
Procedure: as §1

biotinylated CRH [15] = target: T1, biotinylated CRH; experiment: Octet in-tandem competition on captured CRH; row = 1st mAb; competitor (2nd mAb) PR302341-34
Procedure: as §3

[16] = target: T3, human UCN1 peptide, biotinylated; experiment: ELISA, hUCN1 (NT biotin) and (CT biotin), mAb at 100 and 10 nM
Procedure: as §2

biotinylated CRH [17] = target: T1, biotinylated CRH; experiment: ELISA, CRH (NT biotin)
biotinylated CRH [18] = target: T1, biotinylated CRH; experiment: ELISA, CRH (NT biotin)
biotinylated CRH [19] = target: T1, biotinylated CRH; experiment: ELISA, CRH (CT biotin)

B1: PR303394 (antibody, human IgG1, kappa, V domains shown)
VH: EVQLQQSGPELVKPGVSMKISCKASGYSFTDSTMNWVKQSHGKNLEWIGLIHPDNGGTIYNQKFKGKATLTVHKSSSTAYMELLSLTSEDSAVYYCANGFAYWGQGTLVTVSA
VL: DVVMTQTPLSLPVSLGDQASISCRSSQSLLHSNGNTYLHWYLQKPGQSPELLIYKVSNRFSGVPDRFSGSGSGTDFTLKISRVEAEDLGVYFCSQSTHVPLTFGAGTKLELKR
notes: also called analog of CTRND05
EC50 (read off the curve) (biotinylated CRH [1]): ~0.03 nM | EC50 (read off the curve) (biotinylated CRH [2]): ~0.03 nM | binding result [3]: no binding (tested: 100 nM) | EC50 (read off the curve) [4]: ~0.02 nM | EC50 (read off the curve) [5]: ~0.02 nM | binding result [6]: no binding (tested: 100 nM) | % Inhibition (biotinylated CRH [7]): 90%

B2: PR005656 (antibody, human IgG1, kappa, V domains shown)
VH: EVQLVESGGVLVQPGGSLRLSCAASGFTFSSYWMTWVRQAPGKGLEWVANIKQEGSEKYYVDSVKGRFTISRDNAKNSLFLQMNSLRAEDTAVYYCARTLIFDYWGQGTLVTVSS
VL: DIVMTQSPLSLPVTPGEPASISCRSSQSLLHSTGYNSLEWYLQKPGQSPQLLIYLGSNRASGVPDRFSGSGSGTDFTLKISRVEAEDVGIYYCMQTLQTPITFGQGTRLEIKR
EC50 (read off the curve) (biotinylated CRH [8]): ~0.03 nM | IC50 (read off the curve), CRH-induced mCRHR1 luciferase reporter [9]: ~4 nM

B3: PR005660 (antibody, human IgG1, kappa, V domains shown)
VH: B2 VH
VL: B2 VL with N36Q
EC50 (read off the curve) (biotinylated CRH [8]): ~0.03 nM | binding result [10]: no binding (tested: 100 nM) | binding result [11]: no binding (tested: 100 nM) | EC50 (read off the curve) (biotinylated CRH [1]): ~0.05 nM | IC50 in the hCRHR1 reporter assay [12]: ~10 nM | EC50 [13]: 0.076 nM | EC50 (read off the curve) (biotinylated CRH [2]): ~0.03 nM | binding result [3]: no binding (tested: 100 nM) | binding result [14]: no binding (tested: 100 nM) | % Inhibition (biotinylated CRH [15]): 90% | binding result [6]: no binding (tested: 100 nM) | binding result [16]: binds

B4: PR301806 (antibody, human IgG1, kappa, V domains shown)
VH: QVQLQQPGAELVKPGTSVKMSCKASGYTFTSYWMHWVKQRPGQGLEWIGDIYPGSDSTNYNEKFKSKASLTVDTSSSTAYMQLSSLTSEDSAVYYCARSITTTTFWYFDVWGAGTTVTVSS
VL: DVLMTQTPLSLPVSLGDQASISCRSSQSFVYSNGNTYLQWYLQKPGQSPKLLIYKVSNRFSGVPDRFSGSGSGTDFTLKISRVEAEDLGVYYCFQGSHVPPTFGAGTKLELKR
binding result (biotinylated CRH [17]): binds

B5: PR301780 (antibody, human IgG1, kappa, V domains shown)
VH: QIQLVQSGPELKKPGETVKISCKASGYTFTNFGLNWVKQAPGKGLKWMGWINTYTGEPTYTDDFKGRFAFSLETSASTAYLQINNLKKEDTATYFCARGTYRDDGAWFAYWGQGTLVTVSA
VL: B4 VL with S28I, F29I, Y31H, Q39E, Y92H, P101W, A105G, L111I
binding result (biotinylated CRH [18]): binds

B6: PR301788 (antibody, human IgG1, kappa, V domains shown)
VH: EMKLEESGGGLVQPGGSMKLSCVASGFTFSNYWMNWVRQSPEKGLEWVAEIRLKSNNYATHYAESVKGRFTISRDDSKSSVYLQMNNLRAEDTGIYYCTIGTLVYWGQGTLVTVSA
VL: DIVLTQSPASLAVSLGQRATISCRASQSVSTSTYNYMHWFQQKPGQPPKLLIKFASNLESGVPARFSGSGSGTDFTLNIHPVEEEDTATFYCQHSWEIPYTFGGGTKLEIKR
binding result (biotinylated CRH [17]): binds

B7: PR301612 (antibody, human IgG1, kappa, V domains shown)
VH: EVKLEESGGGLVQPGGSIKLSCVASGFTFSGAWMAWVRQSPEKGLEWVAEIKNKANNHATFYAESVKGRFIISRDDSKSSVYLQMNSLRAEDTGTYYCTLPDVWGTGTTVTVSS
VL: QIVLTQSPAIMSASPGERVTISCSASSSVSNMYWYLQKPGSSPKPWIYRTSNLASGVPARFSGSGSGTSYSLTISSMEAEDVATYYCQQYHSFPRTFGGGTKLEIKR
EC50 (read off the curve) (biotinylated CRH [19]): ~0.03 nM

Source: US20250197490A1 (HBM ALPHA THERAPEUTICS, published 2025)
